B1: Serine/threonine-protein kinase tousled-like 1 (Caenorhabditis elegans), P34314 (parent)
chain: MSMLSMDGIVAGGGSSSGGGERSFVLEQKMFNTGPQNKALPTVQSSGSSSNHAPIVGESPLGTVSSTMATGDTGRVGNVTYMSSGMLGATQFMPQNSSHPSTSVMMQQVPPQNGGATRSSPTEMQQCMQAMSEDSIEMRDYNSGVHHMHPHQMQMQQQQQHHQQQYNMSYHNHQQQMQQMHYHQQQQQYQQQQAQHHQMYAPQIQQQQQQPQQQSQQQSAQQPQQSSAALQHVNESSNLSSAGSISDREPEQHGGTPQRPTAPQSSTATDKKTRKRRKAGPTEDQATPKQERKITEFMKVGGEVASGNSVARCLLTEYHQNQGSPKRQPAVQQNGSNSYDSQQQQPQMNQHEMQNSYWGVATPSLGVNNRGTPTPTQQQHYSSDSNSNSNQSPPGQGNQSGRMVRTIDEETQTDSSLSQANPQNADEVAKMNRIIEDHRRQIEELNSKNSLERRKNEASKETIKRLLIDKNQIERKALRDKTAADSPRIGCFKTTRTGDSFRDQWVDGWAFAEMDKKTEQINAERNEIASASALLKKRKPLGIGKEPKRPQAVNSQNDSNGMQPSTSSNTNGDDAIFRRPEEPKEIQYQEYIELDEIYKLRREHLRKEETDLSMEKERLEKEKQHHVRELKRASNESASQFNDHRLLHKRYLMLNLLGKGGFSEVWKAFDIEENRYVACKIHHVNKDWKEEKKANYVKHAMREKDIHKSLDHCRIVKQYDLLTIDNHSFCTVLEYVPGNDLDFYLKQNRSISEKEARSIIMQVVSALVYLNEKSTPIIHYDLKPANILLESGNTSGAIKITDFGLSKIMEGESDDHDLGIELTSQFAGTYWYLPPETFIVPPPKITCKVDVWSIGVIFYQCIYGKKPFGNDLTQQKILEYNTIINAREVSFPSKPQVSSAAQDFIRRCLQYRKEDRADVFELAKHELFRPRGAIRASVAGSLLLVIITLCQHSNRSEDRLCVSNV
partner: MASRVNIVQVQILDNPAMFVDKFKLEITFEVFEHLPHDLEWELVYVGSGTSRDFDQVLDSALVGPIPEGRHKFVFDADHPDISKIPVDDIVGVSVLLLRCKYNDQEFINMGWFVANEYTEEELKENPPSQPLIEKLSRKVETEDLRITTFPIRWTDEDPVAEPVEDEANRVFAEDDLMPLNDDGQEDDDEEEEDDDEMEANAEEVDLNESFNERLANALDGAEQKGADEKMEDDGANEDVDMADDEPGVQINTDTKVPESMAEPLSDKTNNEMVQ

Variants of: B1
Conditions: with asf1_caeel unc-85, Q19326

| Variant | effect of a mutation on the interaction |
| --- | --- |
| S634E | increasing interaction |
| S634A | increasing interaction |
